{"source": "patent US20120277161A1", "about": "(INTER K, published 2012)"}
{"target": "human ERK2 (human, UniProt P28482 1-360)", "sequence (P28482 whole entry)": "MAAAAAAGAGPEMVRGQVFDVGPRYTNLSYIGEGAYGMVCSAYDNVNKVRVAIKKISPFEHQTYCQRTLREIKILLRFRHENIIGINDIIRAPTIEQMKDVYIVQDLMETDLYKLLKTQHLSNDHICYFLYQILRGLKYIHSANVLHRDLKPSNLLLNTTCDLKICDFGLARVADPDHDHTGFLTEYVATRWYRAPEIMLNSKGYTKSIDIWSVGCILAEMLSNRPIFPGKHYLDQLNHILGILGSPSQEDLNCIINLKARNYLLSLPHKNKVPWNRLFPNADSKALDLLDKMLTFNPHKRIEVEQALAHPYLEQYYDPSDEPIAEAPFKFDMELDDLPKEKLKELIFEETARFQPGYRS", "assay": "cell-based or functional assay", "units": {"inhibition of ERK2 activity relative to control, cell-free assay, peptide at 50 µM": "% inhibition"}}
{"binder": "RSRARNPLYR", "note": "[RSRARNPLYR peptide]", "inhibition of ERK2 activity relative to control, cell-free assay, peptide at 50 µM": 4}
{"target": "cellular Src tyrosine kinase (c-Src) (human, UniProt P12931 1-536, limits assumed)", "assay": "cell-based or functional assay", "units": {"% Inhibition of control, c-Src tyrosine kinase activity, cell-free assay, peptide at 50 µM": "% inhibition"}}
{"binder": "KEKLKNPLFK", "note": "[KEKLKNPLFK peptide]", "% Inhibition of control, c-Src tyrosine kinase activity, cell-free assay, peptide at 50 µM": 55}
{"binder": "WQTGT", "note": "[WQTGT peptide]", "% Inhibition of control, c-Src tyrosine kinase activity, cell-free assay, peptide at 50 µM": 0}
{"binder": "NPLYR", "note": "[NPLYR peptide]", "% Inhibition of control, c-Src tyrosine kinase activity, cell-free assay, peptide at 50 µM": 0}
{"binder": "RSKAKNPLYR", "note": "[RSKAKNPLYR peptide]", "% Inhibition of control, c-Src tyrosine kinase activity, cell-free assay, peptide at 50 µM": 57}
{"binder": "RSKAKWQTGTNPLYR", "note": "[RSKAKWQTGTNPLYR peptide]", "% Inhibition of control, c-Src tyrosine kinase activity, cell-free assay, peptide at 50 µM": 44}
{"binder": "RSKAK", "note": "[RSKAK peptide]", "% Inhibition of control, c-Src tyrosine kinase activity, cell-free assay, peptide at 50 µM": 3}
{"binder": "RARAKNPLYK", "note": "[RARAKNPLYK peptide]", "% Inhibition of control, c-Src tyrosine kinase activity, cell-free assay, peptide at 50 µM": 29}
{"binder": "RSRARNPLYR", "note": "[RSRARNPLYR peptide]", "% Inhibition of control, c-Src tyrosine kinase activity, cell-free assay, peptide at 50 µM": 37}
